Source: patent US20090148437A1

What was measured:
[1] = target: human TNFR1 (soluble recombinant protein) (human) (UniProt P19438); test: phage ELISA, 1 nM TNFRI coat; no trypsin; phage input 1.41E+09
[2] = target: human TNFR1 (soluble recombinant protein) (human) (UniProt P19438); test: phage ELISA, 1 nM TNFRI coat; 1 mg/ml trypsin; phage input 1.41E+09
[3] = target: human TNFR1 (soluble recombinant protein) (human) (UniProt P19438); test: phage ELISA, 1 nM TNFRI coat; 10 µg/ml trypsin; phage input 2.82E+09
[4] = target: human TNFR1 (soluble recombinant protein) (human) (UniProt P19438); test: phage ELISA, 1 nM TNFRI coat; 10 µg/ml trypsin; phage input 1.41E+09
[5] = target: human TNFR1 (soluble recombinant protein) (human) (UniProt P19438); test: phage ELISA, 1 nM TNFRI coat; no trypsin; phage input 3.52E+08
[6] = target: human TNFR1 (soluble recombinant protein) (human) (UniProt P19438); test: phage ELISA, 1 nM TNFRI coat; no trypsin; phage input 2.82E+09
[7] = target: human TNFR1 (soluble recombinant protein) (human) (UniProt P19438); test: phage ELISA, 1 nM TNFRI coat; 100 µg/ml trypsin; phage input 5.64E+09
[8] = target: human TNFR1 (soluble recombinant protein) (human) (UniProt P19438); test: phage ELISA, 1 nM TNFRI coat; no trypsin; phage input 5.64E+09
[9] = target: human TNFR1 (soluble recombinant protein) (human) (UniProt P19438); test: phage ELISA, plate coated with 1 nM TNFRI, anti-M13-HRP; phage pre-treated 1 h RT with 1 mg/ml trypsin; phage input 4.51E+10
[10] = target: human TNFR1 (soluble recombinant protein) (human) (UniProt P19438); test: phage ELISA, plate coated with 1 nM TNFRI, anti-M13-HRP; no trypsin (0 µg/ml); phage input 4.51E+10
[11] = target: human TNFR1 (soluble recombinant protein) (human) (UniProt P19438); test: phage ELISA, 1 nM TNFRI coat; 10 µg/ml trypsin; phage input 7.05E+08
[12] = target: human TNFR1 (soluble recombinant protein) (human) (UniProt P19438); test: phage ELISA, 1 nM TNFRI coat; 1 mg/ml trypsin; phage input 3.52E+08
[13] = target: human TNFR1 (soluble recombinant protein) (human) (UniProt P19438); test: phage ELISA, 1 nM TNFRI coat; no trypsin; phage input 1.13E+10
[14] = target: human TNFR1 (soluble recombinant protein) (human) (UniProt P19438); test: phage ELISA, plate coated with 1 nM TNFRI, anti-M13-HRP; phage pre-treated 1 h RT with 10 µg/ml trypsin; phage input 4.51E+10
[15] = target: human TNFR1 (soluble recombinant protein) (human) (UniProt P19438); test: phage ELISA, 1 nM TNFRI coat; 1 mg/ml trypsin; phage input 2.82E+09
[16] = target: human TNFR1 (soluble recombinant protein) (human) (UniProt P19438); test: phage ELISA, 1 nM TNFRI coat; no trypsin; phage input 7.05E+08
[17] = target: human TNFR1 (soluble recombinant protein) (human) (UniProt P19438); test: phage ELISA, 1 nM TNFRI coat; 100 µg/ml trypsin; phage input 3.52E+08
[18] = target: human TNFR1 (soluble recombinant protein) (human) (UniProt P19438); test: phage ELISA, 1 nM TNFRI coat; no trypsin; phage input 2.26E+10
[19] = target: human TNFR1 (soluble recombinant protein) (human) (UniProt P19438); test: phage ELISA, 1 nM TNFRI coat; 100 µg/ml trypsin; phage input 2.82E+09
[20] = target: human TNFR1 (soluble recombinant protein) (human) (UniProt P19438); test: phage ELISA, 1 nM TNFRI coat; 10 µg/ml trypsin; phage input 5.64E+09
[21] = target: human TNFR1 (soluble recombinant protein) (human) (UniProt P19438); test: phage ELISA, plate coated with 1 nM TNFRI, anti-M13-HRP; phage pre-treated 1 h RT with 100 µg/ml trypsin; phage input 4.51E+10
[22] = target: human TNFR1 (soluble recombinant protein) (human) (UniProt P19438); test: phage ELISA, 1 nM TNFRI coat; 100 µg/ml trypsin; phage input 1.13E+10
[23] = target: human TNFR1 (soluble recombinant protein) (human) (UniProt P19438); test: phage ELISA, 1 nM TNFRI coat; 10 µg/ml trypsin; phage input 1.13E+10
[24] = target: human TNFR1 (soluble recombinant protein) (human) (UniProt P19438); test: phage ELISA, 1 nM TNFRI coat; 1 mg/ml trypsin; phage input 7.05E+08
[25] = target: human TNFR1 (soluble recombinant protein) (human) (UniProt P19438); test: phage ELISA, 1 nM TNFRI coat; 100 µg/ml trypsin; phage input 1.41E+09
[26] = target: human TNFR1 (soluble recombinant protein) (human) (UniProt P19438); test: phage ELISA, 1 nM TNFRI coat; 10 µg/ml trypsin; phage input 2.26E+10
[27] = target: human TNFR1 (soluble recombinant protein) (human) (UniProt P19438); test: phage ELISA, 1 nM TNFRI coat; 100 µg/ml trypsin; phage input 7.05E+08
[28] = target: human TNFR1 (soluble recombinant protein) (human) (UniProt P19438); test: phage ELISA, 1 nM TNFRI coat; 10 µg/ml trypsin; phage input 3.52E+08
[29] = target: human TNFR1 (soluble recombinant protein) (human) (UniProt P19438); test: phage ELISA, 1 nM TNFRI coat; 100 µg/ml trypsin; phage input 2.26E+10
[30] = target: human TNFR1 (soluble recombinant protein) (human) (UniProt P19438); test: phage ELISA, 1 nM TNFRI coat; 1 mg/ml trypsin; phage input 1.13E+10
[31] = target: human TNFR1 (soluble recombinant protein) (human) (UniProt P19438); test: phage ELISA, 1 nM TNFRI coat; 1 mg/ml trypsin; phage input 2.26E+10

Chain of human TNFR1 (soluble recombinant protein) (human) (P19438 30-211 limits assumed): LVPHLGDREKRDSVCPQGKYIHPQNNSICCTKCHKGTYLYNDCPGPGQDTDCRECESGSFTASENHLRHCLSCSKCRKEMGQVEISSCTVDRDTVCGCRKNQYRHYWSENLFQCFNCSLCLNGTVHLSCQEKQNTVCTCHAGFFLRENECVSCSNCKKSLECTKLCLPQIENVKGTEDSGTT

## DOM1h-131
[1]
  phage ELISA read-out: 0.85
[2]
  phage ELISA read-out: 0.089
[3]
  phage ELISA read-out: 0.573
[4]
  phage ELISA read-out: 0.409
[5]
  phage ELISA read-out: 0.577
[6]
  phage ELISA read-out: 0.946
[7]
  phage ELISA read-out: 0.196
[8]
  phage ELISA read-out: 0.962
[9]
  phage ELISA read-out: 0.284
[10]
  phage ELISA read-out: 0.916
[11]
  phage ELISA read-out: 0.286
[12]
  phage ELISA read-out: 0.08
[13]
  phage ELISA read-out: 0.949
[14]
  phage ELISA read-out: 0.784
[15]
  phage ELISA read-out: 0.114
[16]
  phage ELISA read-out: 0.705
[17]
  phage ELISA read-out: 0.084
[18]
  phage ELISA read-out: 0.944
[19]
  phage ELISA read-out: 0.141
[20]
  phage ELISA read-out: 0.695
[21]
  phage ELISA read-out: 0.418
[22]
  phage ELISA read-out: 0.284
[23]
  phage ELISA read-out: 0.86
[24]
  phage ELISA read-out: 0.084
[25]
  phage ELISA read-out: 0.115
[26]
  phage ELISA read-out: 0.802
[27]
  phage ELISA read-out: 0.084
[28]
  phage ELISA read-out: 0.213
[29]
  phage ELISA read-out: 0.377
[30]
  phage ELISA read-out: 0.183
[31]
  phage ELISA read-out: 0.229
